Results taken from US9518268B2, “Drought tolerant transgenic plants and method of making same” (PURDUE RESEARCH FOUNDATION, priority 2013, dated 2016).
Read-outs that look alike come from different tables or passages of the source.

T1: ABI1 (Arabidopsis thaliana, UniProt P49597+Q8H1R0)
T1 sequence (P49597 1-434): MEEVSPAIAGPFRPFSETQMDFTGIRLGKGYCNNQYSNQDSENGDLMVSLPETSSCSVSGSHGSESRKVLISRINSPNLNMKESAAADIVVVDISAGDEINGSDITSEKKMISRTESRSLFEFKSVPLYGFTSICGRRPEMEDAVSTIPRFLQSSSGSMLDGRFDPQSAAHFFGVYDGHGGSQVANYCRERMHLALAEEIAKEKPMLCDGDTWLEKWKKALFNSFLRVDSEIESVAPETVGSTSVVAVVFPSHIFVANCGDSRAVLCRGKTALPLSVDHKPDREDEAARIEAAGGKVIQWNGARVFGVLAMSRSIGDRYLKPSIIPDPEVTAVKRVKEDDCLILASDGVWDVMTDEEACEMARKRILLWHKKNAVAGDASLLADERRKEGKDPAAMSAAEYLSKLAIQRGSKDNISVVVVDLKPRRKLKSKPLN
T1 sequence (Q8H1R0 1-183): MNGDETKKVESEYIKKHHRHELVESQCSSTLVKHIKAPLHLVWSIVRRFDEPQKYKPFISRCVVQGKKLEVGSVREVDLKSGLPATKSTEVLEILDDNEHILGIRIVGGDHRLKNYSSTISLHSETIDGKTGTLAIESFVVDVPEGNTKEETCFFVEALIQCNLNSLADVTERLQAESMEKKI


Experiments:
ABI1 [1] = experiment: Phosphatase activity assay (pNPP) with purified PP2Cs and PYLs; format: biochemical, Arabidopsis thaliana; conditions: in the presence of 10 μM ABA; ABI1 and PYLs 0.3 μM
Description: The inhibition by PYL13 is ABA-independent, whereas the inhibition by PYR1 and PYL2 is ABA-induced (FIG. 4B). […] The phosphatase activities of PP2CA, ABI1, and ABI2 were measured in the absence or presence of ABA (1.25 μM), and with or without PYLs. The concentration of PP2Cs and PYLs was 0.3 μM. The A405 value of reaction without PP2C was set as 0% and that of the reaction with PP2C but without ABA and PYLs was set as 100%. Error bars indicate s.e.m. (n=6 for PP2CA and ABI2, and n=3 for ABI1).
To test the functional significance of potential heterodimer formation between PYL13 and other PYLs, the abilities of PYL1 and PYL2 and the protein complexes PYL13-PYL1 and PYL13-PYL2 to inhibit the phosphatase activity of ABI1 were compared using purified recombinant proteins and the synthetic phosphatase substrate pNPP. […] The phosphatase activity of ABI1 was measured (using pNPP) in the absence or presence of 10 μM ABA, with or without PYLs, and with PYL13-PYL dimers. The concentration of ABI1 and PYLs was 0.3 μM. The A405 value of reaction without ABI1 was set as 0% and that of the reaction with ABI1 but without ABA and PYLs was set as 100%. Error bars indicate s.e.m. (n=6). In the presence of 10 μM ABA, ABI1 phosphatase activity was reduced to 67±6% by PYL1 but only to 88±8% by PYL13-PYL1. In the presence of 10 μM ABA, ABI1 phosphatase activity was reduced to 50±3% by PYL2 but only to 78±10% by PYL13-PYL2.
Phosphatase activity was measured using the colorimetric substrate p-nitrophenyl phosphate (pNPP, SIGMA). Reactions were performed in a reaction buffer containing 50 mM Tris-HCl, pH 7.5, 25 mM Mg(OAc)2, 2 mM MnCl2, 0.5 mM EGTA, 0.5% β-mercaptoethanol, and 0.5% BSA. ABA and PYLs were added as indicated. The concentration of PP2Cs and PYLs was 0.3 μM. Reactions were initiated by the addition of pNPP to a final concentration of 50 mM. The hydrolysis of pNPP was measured by following the absorbance at 405 nm (A405). Because His-PYL13 is difficult to purify, is prone to degradation, and rapidly loses activity, newly purified PYL13 was used for the phosphatase activity assay.

ABI1 [2] = target: T1, ABI1; conditions: read-out: dissociation constant (Kd) of PYL10-ABI1 interaction, cited from earlier work

Molecule | ABI1 phosphatase activity reduced to (ABI1 [1]) | Kd (ABI1 [2]; with ABA) | Kd (ABI1 [2]; without ABA)
PYL13-PYL1: protein complex (heterodimer) of purified recombinant PYL13 and PYL1 | 88±8% | – | –
PYL1: Arabidopsis thaliana PYL family ABA receptor protein PYL1, AT5G46790 | 67±6% | – | –
PYL13-PYL2: protein complex (heterodimer) of purified recombinant PYL13 and PYL2 | 78±10% | – | –
PYL10: Arabidopsis thaliana PYL family protein PYL10, AT4G27920 (protein, listed as Arabidopsis thaliana) MNGDETKKVESEYIKKHHRHELVESQCSSTLVKHIKAPLHLVWSIVRRFDEPQKYKPFISRCVVQGKKLEVGSVREVDLKSGLPATKSTEVLEILDDNEHILGIRIVGGDHRLKNYSSTISLHSETIDGKTGTLAIESFVVDVPEGNTKEETCFFVEALIQCNLNSLADVTERLQAESMEKKI | – | 20 nM | 1200 nM
